Measurements published in US20110104145A1, “METHOD FOR THE TREATMENT OR PROPHYLAXIS OF CHRONIC INFLAMMATORY DISEASES” (priority 2008, published 2011).

Target: CD89 (Fc receptor for IgA) on polymorphonuclear cells (human) (UniProt P24071)
Experiment: cell-based or functional assay

Chain of CD89 (Fc receptor for IgA) on polymorphonuclear cells (human) (P24071 22-287): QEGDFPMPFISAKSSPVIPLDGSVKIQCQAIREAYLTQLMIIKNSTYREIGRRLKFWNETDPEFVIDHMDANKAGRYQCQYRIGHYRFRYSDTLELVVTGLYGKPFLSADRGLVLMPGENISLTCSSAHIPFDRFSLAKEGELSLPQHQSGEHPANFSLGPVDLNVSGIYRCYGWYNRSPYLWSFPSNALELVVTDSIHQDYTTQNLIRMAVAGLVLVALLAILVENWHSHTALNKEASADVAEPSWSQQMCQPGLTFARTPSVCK

| Substance | percentage blocking (polymorphonuclear cells bound to IgA-coated beads, 2-D migration assay) [%] |
| --- | --- |
| anti-CD89 monoclonal antibody MIP8a | 75 to 90 |
| anti-CD89 monoclonal antibody MY43 | 30 |
